Data published in US20230310602A1 (published 2023).

Key:
[1] = molecular target: T1, HCELL (exofucosylated CD44) on FTVII-treated human MSCs (FuchAdMSCs, adipose-derived); FuchBMMSCs, bone … (human, UniProt P16070 21-742, fucose installed in α(1,3)-linkage onto sialyllactosaminyl glycans of CD44 by fucosyltransferase VII with GDP-fucose (creates sLe^x)); experiment: cell-based or functional assay
[2] = molecular target: T1, HCELL (exofucosylated CD44) on …; experiment: cell-based or functional assay; remark: listed apart in the source

T1 sequence (P16070 21-742): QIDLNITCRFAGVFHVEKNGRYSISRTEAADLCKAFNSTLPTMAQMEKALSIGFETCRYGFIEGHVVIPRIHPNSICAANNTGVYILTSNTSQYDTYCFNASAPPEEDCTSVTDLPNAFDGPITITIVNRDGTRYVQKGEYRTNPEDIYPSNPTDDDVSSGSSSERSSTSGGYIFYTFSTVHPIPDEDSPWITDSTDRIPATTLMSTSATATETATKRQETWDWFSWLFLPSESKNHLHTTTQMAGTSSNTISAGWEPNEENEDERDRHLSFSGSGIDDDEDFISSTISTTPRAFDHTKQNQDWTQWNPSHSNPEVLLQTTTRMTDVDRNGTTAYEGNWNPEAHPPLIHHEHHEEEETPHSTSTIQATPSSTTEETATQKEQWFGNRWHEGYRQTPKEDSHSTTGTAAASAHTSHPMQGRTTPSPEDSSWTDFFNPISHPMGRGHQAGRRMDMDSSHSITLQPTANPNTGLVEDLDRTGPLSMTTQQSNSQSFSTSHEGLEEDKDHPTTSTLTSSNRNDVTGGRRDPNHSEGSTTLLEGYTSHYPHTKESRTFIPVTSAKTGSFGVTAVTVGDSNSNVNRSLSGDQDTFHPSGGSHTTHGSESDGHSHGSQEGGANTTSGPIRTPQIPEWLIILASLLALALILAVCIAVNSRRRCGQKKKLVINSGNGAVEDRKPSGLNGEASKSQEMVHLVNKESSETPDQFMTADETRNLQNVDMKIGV

- IDO in supernatant, ratio FuchAdMSCs/UhAdMSCs, mE-IG (1 µg/ml) [1]: 6.75 ratio
- IDO in supernatant, ratio FuchAdMSCs/UhAdMSCs, mE-IG (5 µg/ml) [1]: 7.72 ratio
- IDO in supernatant, ratio FuchBMMSCs/UhBMMSCs, mE-IG (1 µg/ml) [1]: 4.71 ratio
- IDO in supernatant, ratio FuchBMMSCs/UhBMMSCs, mE-IG (5 µg/ml) [1]: 4.74 ratio
- IL-10 in supernatant, ratio FuchAdMSCs/UhAdMSCs, mE-IG (1 µg/ml) [1]: 12.7 ratio
- IL-10 in supernatant, ratio FuchAdMSCs/UhAdMSCs, mE-IG (5 µg/ml) [1]: 16 ratio
- IL-10 in supernatant, ratio FuchBMMSCs/UhBMMSCs, mE-IG (1 µg/ml) [1]: 3.87 ratio
- IL-10 in supernatant, ratio FuchBMMSCs/UhBMMSCs, mE-IG (5 µg/ml) [1]: 4.85 ratio
- NO2^-/NO3^- in supernatant, ratio FuchAdMSCs/UhAdMSCs, mE-IG (1 µg/ml) [1]: 5.12 ratio
- NO2^-/NO3^- in supernatant, ratio FuchAdMSCs/UhAdMSCs, mE-IG (5 µg/ml) [1]: 5.9 ratio
- NO2^-/NO3^- in supernatant, ratio FuchBMMSCs/UhBMMSCs, mE-IG (1 µg/ml) [1]: 3.31 ratio
- NO2^-/NO3^- in supernatant, ratio FuchBMMSCs/UhBMMSCs, mE-IG (5 µg/ml) [1]: 5.14 ratio
- TGFβ in supernatant, ratio FuchAdMSCs/UhAdMSCs, mE-IG (1 µg/ml) [1]: 12.2 ratio
- TGFβ in supernatant, ratio FuchAdMSCs/UhAdMSCs, mE-IG (5 µg/ml) [1]: 12.4 ratio
- TGFβ in supernatant, ratio FuchBMMSCs/UhBMMSCs, mE-IG (1 µg/ml) [1]: 8.11 ratio
- TGFβ in supernatant, ratio FuchBMMSCs/UhBMMSCs, mE-IG (5 µg/ml) [1]: 8.5 ratio
- IL-10 production of adipose-derived hAdMSCs, ratio of FuchMSCs/UhMSCs for E-selectin exposure [2]: 10 fold
B1: Recombinant mouse E-selectin-human Fc chimera (mE-Ig) (Fc fusion, UniProt Q00690 22-557, looked up, not shown: a dimerising Fc or GST)
chain: WYYNASSELMTYDEASAYCQRDYTHLVAIQNKEEINYLNSNLKHSPSYYWIGIRKVNNVWIWVGTGKPLTEEAQNWAPGEPNNKQRNEDCVEIYIQRTKDSGMWNDERCNKKKLALCYTASCTNASCSGHGECIETINSYTCKCHPGFLGPNCEQAVTCKPQEHPDYGSLNCSHPFGPFSYNSSCSFGCKRGYLPSSMETTVRCTSSGEWSAPAPACHVVECEALTHPAHGIRKCSSNPGSYPWNTTCTFDCVEGYRRVGAQNLQCTSSGIWDNETPSCKAVTCDAIPQPQNGFVSCSHSTAGELAFKSSCNFTCEQSFTLQGPAQVECSAQGQWTPQIPVCKAVQCEALSAPQQGNMKCLPSASGPFQNGSSCEFSCEEGFELKGSRRLQCGPRGEWDSKKPTCSAVKCDDVPRPQNGVMECAHATTGEFTYKSSCAFQCNEGFSLHGSAQLECTSQGKWTQEVPSCQVVQCPSLDVPGKMNMSCSGTAVFGTVCEFTCPDDWTLNGSAVLTCGATGRWSGMPPTCEAPVSPTRP
